Results taken from publication PMC8162069.
Where a chain is given by its changes, count along the chain named. Names may count otherwise.

B1: Tv-GAPDH (Trichoderma virens Gv29-8) (protein)
chain: MAPIKVGINGFGRIGRIVFRNAVEHPDIEVVAVNDPFIETTYAAYMLKYDSSHGLFKGDVEVDGKDLVVNGKKVRFYTERDPANIKWSETGADYIVESTGVFTTTEKAKAHLVGGAKKVIISAPSADAPMYVMGVNENDYNGSADVISNASCTTNCLAPLAKVINDNYGIVEGLMTTVHSYTATQKTVDGPSAKDWRGGRGAAQNIIPSSTGAAKAVGKVIPSLNGKLTGMSIRVPTANVSVVDLTVRLEKGATYAEITETIKKAADGPLKGVLAYTNDDVVSSDMLGNTNSSIFDIKAGISLNDNFVKLVSWYDNEWGYSRRVLDLLAHVAKVDASK
B2: HepG (Trichoderma virens Gv29-8; A201L) (protein)
chain: MVPKVGINGFGRIGRVVLRNALETGAVEVVALNDPFIEPHYAEYMFKYDSTHGRFKGDIKVDGKDLVIDGKRIKFYQERDPANIPWKDSGAEYIVESTGVFTTTEKASAHFKGGAKKVIISAPSADAPMYVMGVNEDTYAGANVISNASCTTNCLAPLAKTLNDKFTIVEGLMTAIHAYTASQKTVDGPSSKDWRGGRAALQNLIPSSTGAAKAVGKVIPELAGKVTGMSVRVPTVNVSLVDFTVRFAKDVTYDEVKAAIKEASEGPLKGILAYTEDDIVSTDILTDPHSSTFDAKAGIALNKNFVKVMSWYDNEYGYSRRVVDLIVFVSKKDAGQ
B3: HepG (Trichoderma virens Gv29-8) (protein)
chain: B2 chain with L201A

Substrate: O=C[C@H](O)COP(=O)(O)O
Assay: purified protein
Type: biochemical, Trichoderma virens
Details: without HA

| Protein | Km [µM] | kcat [s⁻¹] | kcat/Km [M⁻¹ s⁻¹] |
| --- | --- | --- | --- |
| B1 | 1100 ± 200 | 115 ± 21.7 | 105000 |
| B2 | 260 ± 50 | 21.7 ± 3.33 | 83300 |
| B3 | 280 ± 50 | 41.7 ± 6.67 | 148000 |
